B1: wt-peptide PTTIYY (non-biotinylated hexapeptide) (peptide)
peptide: PTTIYY
notes: also called PTTIYY hexapeptide; source: synthetic peptide
B2: PTTIYY hexapeptide with Tyrosine at position 5 changed to Tryptophan (peptide)
peptide: PTTIWY
notes: also called PTTIWY; source: synthetic peptide (mutational scan library)
B3: PTTIYY hexapeptide with Isoleucine at position 4 changed to Leucine (peptide)
peptide: PTTLYY
notes: also called PTTLYY; source: synthetic peptide (mutational scan library)
B4: PTTIYY hexapeptide with Tyrosine at position 5 changed to Phenylalanine (peptide)
peptide: PTTIFY
notes: also called PTTIFY; source: synthetic peptide (mutational scan library)
B5: PTTIYY hexapeptide with the Y-A mutation at position 6 (peptide)
peptide: PTTIYA
notes: also called PTTIYA; source: synthetic peptide (mutational scan library)
B6: PTTIYY hexapeptide with Tyrosine at position 6 changed to Phenylalanine (peptide)
peptide: PTTIYF
notes: also called PTTIYF; source: synthetic peptide (mutational scan library)
B7: PTTIYY hexapeptide with Tyrosine at position 6 changed to Tryptophan (peptide)
peptide: PTTIYW
notes: also called PTTIYW; source: synthetic peptide (mutational scan library)
B8: His-AGR2 WT (mature AGR2, amino acids 21-175, N-terminal 6xHis tag; plasmid pmAGR2) (natural protein, human)
chain: RDTTVKPGAKKDTKDSRPKLPQTLSRGWGDQLIWTQTYEEALYKSKTSSKPLMIIHHLDECPHSQALKKVFAENKEIQKLAEQFVLLNLVYETTDKHLSPDGQYVPRIMFVDPSLTVRADITGRYSNRLYAYEPADTALLLDNMKKALKLLKTEL
notes: human AGR2, mature form without the ER leader, residues 21-175; also called wt-AGR2; wild-type AGR2; source: E. coli BL21-AI, purified (Ni-NTA agarose; gel filtration buffer exchange for HDX)
B9: His-AGR2 S134A (plasmid pmAGR2S134A) (natural protein, human)
chain: B8 chain with S114A
notes: Ser at 69 as in m1; also called mutant AGR2^S134A; source: E. coli BL21-AI, purified (Ni-NTA agarose; gel filtration buffer exchange for HDX)
B10: His-AGR2 D132A (plasmid pmAGR2D132A) (natural protein, human)
chain: B8 chain with D112A
notes: human AGR2 residues 21-175; source: E. coli BL21-AI, purified (Ni-NTA agarose); not shown: His6 (leader as in m1), N-terminal, kept
B11: His-AGR2 P133A (plasmid pmAGR2P133A) (natural protein, human)
chain: B8 chain with P113A
notes: as for B10

The target of assay [1] is B8. Put plainly: ELISA; competition: biotinylated peptide A4 on the streptavidin-coated solid phase; fixed 1 μg AGR2 added with 100 ng of the indicated non-biotinylated synthetic peptide; AGR2 binding in RLU. Conditions: both partners purified. A general note: In an ELISA, binding on a coated surface is turned into a signal by an enzyme label.
Assay [2] addresses T1, 16mer AGR2-interacting peptide SGSG-HLPTTIYYGPPG
T1 construct: peptide A4 with an N-terminal SGSG stretch, as used for hydrogen-deuterium exchange; also called peptide A4 (in the HDX experiment); consensus site peptide A4; source: synthetic peptide (Chiron Mimotopes), stock 5 mg/ml in DMSO
T1 peptide: SGSGHLPTTIYYGPPG
Put plainly: HDX-MS; His-AGR2 WT 1 μM incubated 30 min with peptide 10 μM (1% DMSO), 10-fold dilution into deuterated buffer (20 mM Tris-HCl pD 7.6, 150 mM NaCl, 10 mM MgCl2), room temperature, 30 s to 3 h, pepsin. Conditions: both partners purified.

The target in assay [3] is free consensus site containing peptides. Put plainly: fluorescence polarisation; data not shown; AGR2 binding to free consensus site containing peptides in solution. A general note: In fluorescence polarisation assays a small probe gives low polarisation when free and higher when bound to something large.
In assay [4] the target is T2, biotinylated Peptide A4 (AGR2-binding peptide aptamer, HLPTTIYYGPPG) (also: biotinylated, end not given here).
T2 construct: also called TTIYY-containing peptide; source: synthetic peptide (Chiron Mimotopes)
T2 peptide: HLPTTIYYGPPG
Put plainly: ELISA; biotinylated peptide A4 (5 μg/well) captured on streptavidin-coated microtitre plate; wt or mutant AGR2 titrated in 3% BSA in PBS-T, 1 h room temperature; detected with AGR2 antibody K47, RLU. Conditions: both partners purified.

Assay [5] addresses T3, His-EpEX-CO, extracellular domain of EpCAM (amino acids 24-265), N-terminal 6xHis tag (human).
T3 construct: human EpCAM extracellular domain (EpEX), amino acids 24-265 of NM_002354; For HDX the protein was eluted with 1 mM DTT in the final buffer; also called wt-EpCAM; His-EpCAM; source: E. coli BL21-DE3, solubilised with 7 M urea, purified (Ni-NTA agarose); not shown: His6 followed by a TEV protease site, N-terminal, kept
T3 chain: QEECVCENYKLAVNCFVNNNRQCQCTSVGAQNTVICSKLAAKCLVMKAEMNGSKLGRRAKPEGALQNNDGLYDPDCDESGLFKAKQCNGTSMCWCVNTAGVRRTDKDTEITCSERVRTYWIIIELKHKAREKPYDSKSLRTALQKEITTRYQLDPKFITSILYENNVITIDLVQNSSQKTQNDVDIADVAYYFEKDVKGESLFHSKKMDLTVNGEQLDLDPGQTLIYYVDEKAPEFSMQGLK
Kind of assay: ELISA; His-EpCAM (EpEX, wt or Y251A) immobilised on polystyrene microtitre plate in 0.1 M NaHCO3 pH 8.6; AGR2 wt or mutants titrated in the mobile phase (0-1 μg), 1 h room temperature; without or with 1 mM DTT at the binding or the blocking step; detected with AGR2 antibody K47, RLU. The note with it: both partners purified.

Where a chain is given by its changes, count along the chain named. Names may count otherwise. No end group written: not given here.

Turning to B1, the binding result in assay [1] is on record as “binds”. The same measure, in the same setting: the same measure for B2: “binds”; for B3: “binds”.

Regarding B4, the binding result in assay [1] was “binds”. Consider B5, for which, in assay [1], the binding result is listed as “binds”. The same measure, in the same setting: the same measure for B6: “binds”; for B7: “binds”. Turning to B8, the binding result in assay [2], in assay [4] and in assay [5] was “binds” each time. Also, the equilibrium dissociation constant (Kd) – broadly, the concentration at which binding is half-saturated – in assay [3] fell in the range of 15 to 45 µM. Consider B9, for which the binding result in assay [4] and in assay [5] was “binds” in each case. On to B10, for which the binding result in assay [4] and in assay [5] was “binds” each time.

As to B11, the binding result in assay [4] and in assay [5] was “binds” throughout.

The values above are taken from publication PMC5880107, “The Sequence-specific Peptide-binding Activity of the Protein Sulfide Isomerase AGR2 Directs Its Stable Binding to the Oncogenic Receptor EpCAM*^([image sbox.jpg])” (Molecular & Cellular Proteomics : MCP, 2018).
